The record followed here is patent US20230270832A1 (published 2023).

The target of this assay is T1, MAGEA1 peptide on HLA-C*07:02 (human).
T1 peptide: VRFFFPSL
The experiment in a line: killing.

B1: MAGEA1 TCR 32-41 (TCR, V domains shown)
Valpha: TQLLEQSPQFLSIQEGENLTVYCNSSSVFSSLQWYRQEPGEGPVLLVTVVTGGEVKKLKRLTFQFGDARKDSSLHITAAQPGDTGLYLCAGDESISYGKLTFGQGTILTVHP
Vbeta: DAGVIQSPRHEVTEMGQEVTLRCKPISGHDYLFWYRQTMMRGLELLIYFNNNVPIDDSGMPEDRFSAKMPNASFSTLKIQPSEPRDSAVYFCASSFLGWNEKLFFGSGTQLSVL
Regarding B1, the binding result is listed as “recognises”.

B2: MAGEA1 TCR 32-39 (TCR, V domains shown)
Valpha: DQQVKQNSPSLSVQEGRISILNCDYTNSMFDYFLWYKKYPAEGPTFLISISSIKDKNEDGRFTVFLNKSAKHLSLHIVPSQPGDSAVYFCAASAQNNDMRFGAGTRLTVKP
Vbeta: NAGVMQNPRHLVRRRGQEARLRCSPMKGHSHVYWYRQLPEEGLKFMVYLQKENIIDESGMPKERFSAEFPKEGPSILRIQQVVRGDSAAYFCASSPSYEQYFGPGTRLTVT
Regarding B2, the binding result was “recognises”.
